# Data from patent US20130052195A1 (EMERGENT PRODUCT DEVELOPMENT SEATTLE, published 2013).
# T1: murine IL6 (murine, UniProt P08505 25-211)
# T1 construct: also called mIL-6; mIL6
# T1 sequence (looked up): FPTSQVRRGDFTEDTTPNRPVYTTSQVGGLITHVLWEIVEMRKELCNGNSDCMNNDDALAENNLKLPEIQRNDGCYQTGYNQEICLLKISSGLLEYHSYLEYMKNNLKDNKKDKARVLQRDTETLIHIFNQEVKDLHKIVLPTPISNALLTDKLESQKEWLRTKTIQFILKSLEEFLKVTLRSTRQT
# B1: A2-XT6 (multi-target binding molecule with the TNFR extracellular domain (ECD) at the N-terminal end and the anti-hyperIL6 scFv at the carboxy-terminal end) (other)
# chain: LPAQVAFTPYAPEPGSTCRLREYYDQTAQMCCSKCSPGQHAKVFCTKTSDTVCDSCEDSTYTQLWNWVPECLSCGSRCSSDQVETQACTREQNRICTCRPGWYCALSKQEGCRLCAPLRKCRPGFGVARPGTETSDVVCKPCAPGTFSNTTSSTDICRPHQICNVVAIPGNASMDAVCTSTSPTRSMAPGAVHLPQPVSTRSQHTQPTPEPSTAPSTSFLLPMGPSPPAEGSTGDTGEPKSSDKTHTCPPCPAPEAAGAPSVFLFPPKPKDTLMISRTPEVTCVVVDVSHEDPEVKFNWYVDGVEVHNAKTKPREEQYNSTYRVVSVLTVLHQDWLNGKAYACAVSNKALPAPIEKTISKAKGQPREPQVYTLPPSRDELTKNQVSLTCLVKGFYPSDIAVEWESNGQPENNYKTTPPVLDSDGSFFLYSKLTVDKSRWQQGNVFSCSVMHEALHNHYTQKSLSLSPGQRHNNSSLNTRTQKARHSPNSEVQLLESGGGLVQPGGSLRLSCAASGFTFSFYQMHWVRQAPGKGLEWVSGIYPSGGYTKYADSVKGRFTISRDNSKNTLYLQMNSLRAEDTAVYYCARDLGYGSSWYYFDYWGQGTLVTVSSGGGGSGGGGSGGGGSQSALTQPASVSGSPGQSITISCSGTDSDVGGYNHVSWYQQHPGKAPKLIIYDVDHRPSGISNRFSGSKSGNTASLTISGLQAEDEADYYCSSYRSGSTYVFGTGTKVTVL
# notes: also called Zeu080a; TRU(XT6)-1002
# Molecular target: T1, murine IL6
# Assay: not described (statement in Example 1)
binder,measurement,value
B1,binding result,no binding
